The values that follow come from PMC11490885.

This experiment deals with hβ3-ICL-del 1D4 (human GABAA receptor β3 subunit, intracellular loop deleted, homomeric receptor) (human). As to the kind of experiment: native MS; purified β3-ICL-del receptor, buffer exchanged into 200 mM ammonium acetate pH 8, 0.08 mM DMNG; static nanospray, Q-Exactive EMR; unlabeled receptor seen as a single species; pentamer.

As for “hβ3-ICL-del 1D4 (human GABAA receptor β3 subunit, intracellular loop deleted, homomeric receptor)”, the stoichiometry N – broadly, the number of molecules, sites or subunits per partner or assembly – came to 5.
